Measurements published in patent US20150218594A1, “CELL-FREE AND MINIMIZED METABOLIC REACTION CASCADES FOR THE PRODUCTION OF CHEMICALS” (CLARIANT PRODUKTE (DEUTSCHLAND) GMBH, priority 2012, published 2015).
Like-named read-outs stand apart in the source and are kept apart here.

Legend:
[1] = PDC activity for natural substrate; assay type: biochemical
Excerpt: (§1) (J. Mol. Catal. B-Enzym. 2009, 61, 30-35).

[2] = Enzyme temperature optimum; assay type: biochemical
[3] = Ethanol tolerance of enzymes (E50); assay type: biochemical
[4] = Isobutanol tolerance of enzymes (I50); assay type: biochemical
[5] = Thermal tolerance of PDC; assay type: physicochemical
[6] = Enzyme half-life at 50° C.
[7] = ALDH activity assay (glyceraldehyde to glycerate, NAD reduction); assay type: biochemical; conditions: natural substrate
Procedure: as §1
ALDH activity: ALDH activity was assayed at 50° C. by oxidizing D-glyceraldeyde to glycerate, whereby the coenzyme NAD is reduced to NADH. Assay mixture contained 50 mM HEPES (pH 7), 2.5 mM MgCl2, 2 mM NAD and 1 mM glyceraldehyde. (FEBS Lett. 2006, 580, 1198-1204)

[8] = Determination of specific activity of purified TaALDH variants; assay type: biochemical; conditions: purified enzyme, 1 mM D-Glyceraldehyde, 50° C., pH 7
Excerpt: The Ta-aldh gene was cloned in pCBR-Chis expression vector as described above. Mutations F34L, F34M, Y399C, S405C and S405N were inserted into Ta-aldh gene by Quickchange PCR as described above. For recombinant expression, E. coli BL21 (DE3) was transformed with pCBR-Ta-aldh-Chis, pCBR-Ta-aldh-f34I-s405c-Chis, pCBR-Ta-aldh-f34m-s405n-Chis or pCBR-Ta-aldh-f34m-y399c-s405n-Chis. Each of the four variants was produced using the following protocol:
Large amounts of a TaALDH-Variant were produced with fed-batch fermentation in a 40 L Biostat Cplus bioreactor (Sartorius Stedim, Goettingen, Germany). Defined media was supplemented with 30 μg/ml kanamycin. After inoculation cells were grown at 30° C. for 24 h and induced with 0.3 mM IPTG. Enzyme expression was performed at 30° C. for 3 h. One fermentation produced 300 g cells (wet weight). Cells were harvested and lysed with Basic-Z Cell Disruptor (Constant Systems, Northants, UK) in loading buffer (200 mM NaCl; 20 mM Imidazol; 2.5 mM MgCl2; 50 mM NaPi, pH 6.2). After heat treatment at 50° C. for 30 min, cell debris and protein aggregates were separated from soluble fraction by centrifugation at 30,000 g at 20° C. for 30 min (Sorvall RC6+, SS-34 rotor, Thermo Scientific).
Soluble fraction of His-tagged TaALDH-Variant was further purified by Ni-NTA chromatography using ÄKTA UPC-900 FPLC-system (GE Healthcare, Freiburg, Germany). Supernatant was loaded on HiTrap FF-column and washed with two column volumes of loading buffer. Highly purified and concentrated TaALDH was fractioned after elution in imidazole buffer (200 mM NaCl; 500 mM imidazol; 50 mM NaPi, pH 6.2). Buffer was changed to 20 mM (NH4)HCO3 with HiPrep 26/10 Desalting column and TaALDH was lyophilized with an Alpha 2-4 LD Plus freeze dryer (Martin Christ GmbH, Osterode am Harz, Germany).
TaALDH activity was determined spectrophotometrically at 50° C. by measuring the rate of cofactor reduction at 340 nm in flat bottom microtiter plates (Grainer BioOne) with a Fluorostar Omega Photometer (BMG Labtech GmbH, Ortenberg, Germany). One unit of activity was defined as reduction of 1 μmol of cofactor per minute.

[9] = Screening of TaALDH variants, relative activity under standard conditions (2 mM NAD); assay type: biochemical
Procedure: (§2) Colonies of E. coli BL21 (DE3) containing Ta-ALDH library were transferred into 96-deepwell plates (Gainer BioOne) containing Zym5052 autoinduction medium (Protein Expression and Purification, 2005. 41(1): p. 207-234). Cultures were grown over night at 37° C., 1000 rpm. Cells were harvested by centrifugation at 5000 g at 2° C. for 2 min and lysed with B-Per® protein extraction reagent (Thermo Fisher Scentific, Rockford, USA). After incubation for 60 min at 50° C., insoluble cell debris and was removed by centrifugation at 5000 g at 20° C. for 30 min. Supernatants containing variants of TaALDH were tested for relative activity under standard conditions: 2 mM NAD, 1 mM D-glyceraldehyde in 50 mM HEPES (pH 7) at 50° C. After 20 min NADH formation was detected spectrophotometrically at 340 nm.
(§3) The values “relative to wt” are the mU/mL values normalized to the wildtype control value.

[10] = Cofactor acceptance of Ta-ALDH variants (10 mM NAD); assay type: biochemical
Procedure: as §2
Change in cofactor acceptance of Ta-ALDH variants was tested under standard assay conditions but with 10 mM NAD. After 20 min NADH formation was detected and compared to relative activity.
as §3

[11] = Activity in solvents of Ta-ALDH variants (3 % isobutanol); assay type: biochemical
Procedure: as §2
Activity in solvents of Ta-ALDH variants was tested under standard assay conditions containing additional solvent. After 20 min NADH formation was detected and compared to relative activity.
as §3

[12] = cited from earlier work
[13] = ADH activity with acetaldehyde as substrate; assay type: biochemical
Excerpt: as §1

[14] = ADH activity, NADH-dependent reduction of isobutyraldehyde; assay type: biochemical; conditions: substrate isobutyraldehyde
Excerpt: as §1

[15] = GDH activity assay (oxidation of D-glucose to gluconate, NAD reduction); assay type: biochemical; conditions: natural substrate
Procedure: as §1
GDH activity: GDH activity was assayed at 50° C. by oxidizing D-glucose to gluconate, whereby the coenzyme NAD is reduced to NADH. Assay mixture contained 50 mM HEPES (pH 7), 2 mM NAD and 50 mM D-glucose. (J. Biol. Chem. 2006, 281, 14796-14804)

[16] = Table 1, value with literature reference
[17] = Table 2, value with literature reference

B1: PDC: Pyruvate decarboxylase PDC (EC 4.1.1.1), Zymomonas mobilis, Seq ID 20 (protein)
chain: MSYTVGTYLAERLVQIGLKHHFAVAGDYNLVLLDNLLLNKNMEQVYCCNELNCGFSAEGYARAKGAAAAVVTYSVGALSAFDAIGGAYAENLPVILISGAPNNNDHAAGHVLHHALGKTDYHYQLEMAKNITAAAEAIYTPEEAPAKIDHVIKTALREKKPVYLEIACNIASMPCAAPGPASALFNDEASDEASLNAAVEETLKFIANRDKVAVLVGSKLRAAGAEEAAVKFADALGGAVATMAAAKSFFPEENPHYIGTSWGEVSYPGVEKTMKEADAVIALAPVFNDYSTTGWTDIPDPKKLVLAEPRSVVVNGIRFPSVHLKDYLTRLAQKVSKKTGALDFFKSLNAGELKKAAPADPSAPLVNAEIARQVEALLTPNTTVIAETGDSWFNAQRMKLPNGARVEYEMQWGHIGWSVPAAFGYAVGAPERRNILMVGDGSFQLTAQEVAQMVRLKLPVIIFLINNYGYTIEVMIHDGPYNNIKNWDYAGLMEVFNGNGGYDSGAGKGLKAKTGGELAEAIKVALANTDGPTLIECFIGREDCTEELVKWGKRVAAANSRKPVNKLLSGRPVLGSSHHHHHH
modifications: Pyruvate decarboxylase (EC 4.1.1.1), Zymomonas mobilis Protein sequence including C-terminal His-Tag
- Activity, 50° C. [1]: 64 U/mg
- T-Optimum ([2]; Table 1): 50 50 °C
- E50: Ethanol concentration which causes loss of 50% activity ([3]; 50° C.): 20 (50° C.) % v/v
- I50: Isobutanol concentration which causes loss of 50% activity ([4]; 45° C.): 8 (45° C.) % v/v
- thermostable up to [5]: up to 50 °C
- Half-life, 50° C. [6]: 22 h

B2: F34M Y399C S405N: Aldehyde Dehydrogenase ALDH (EC 1.2.1.3), Thermoplasma acidophilum, Mutations F34M+Y399C+S405N, Seq ID 10; the engineered ALDH of Tables 1 and 2 (protein)
chain: MDTKLYIDGQWVNSSSGKTVDKYSPVTGQVIGRMEAATRDDVDRAIDAAEDAFWAWNDLGSVERSKIIYRAKELIEKNRAELENIIMEENGKPVKEAKEEVDGVIDQIQYYAEWARKLNGEVVEGTSSHRKIFQYKVPYGIVVALTPWNFPAGMVARKLAPALLTGNTVVLKPSSDTPGSAEWIVRKFVEAGVPKGVLNFITGRGSEIGDYIVEHKKVNLITMTGSTATGQRIMQKASANMAKLILELGGKAPFMVWKDADMDNALKTLLWAKYWNAGQSCIAAERLYVHEDIYDTFMSRFVELSRKLALGDPKNADMGPLINKGALQATSEIVEEAKESGAKILFGGSQPSLSGPYRNGYFFLPTIIGNADQKSKIFQEEIFAPVIGARKISSVEEMCDLANDNKYGLASYLFTKDPNIIFEASERIRFGELYVNMPGPEASQGYHTGFRMTGQAGEGSKYGISEYLKLKNIYVDYSGKPLHINTVRDDLFQSGRPVLGSSHHHHHH
modifications: Aldehyde Dehydrogenase (EC 1.2.1.3), Thermoplasma acidophilum, variant F34M-Y399C-S405N Protein sequence including C-terminal His-Tag
- Activity, 50° C. [7]: 1 U/mg
- E50: Ethanol concentration which causes loss of 50% activity ([3]; 60° C.): 13 (60° C.) % v/v
- isobutanol concentration that already induces adverse effects on activity [4]: 3 % (v/v)
- I50: Isobutanol concentration which causes loss of 50% activity ([4]; 50° C.): 3 (50° C.) % v/v
- specific activity (U/mg) at 2 mM NAD [8]: 1.2 U/mg
- 2 mM NAD (mU/mL) ([9]; 1 mM D-glyceraldehyde, 50° C., pH 7, lysate supernatant): 130.81 mU/mL
- relative to wt ([9]; mU/mL values normalized to the wildtype control value): 45.3
- 10 mM NAD (mU/mL) ([10]; 10 mM NAD, 1 mM D-glyceraldehyde, 50° C., pH 7): 396.91 mU/mL
- relative to wt ([10]; 10 mM NAD, normalized to the wildtype control value): 33.3
- 10 mM NAD /2 mM NAD ([10]; ratio of activity at 10 mM NAD to 2 mM NAD): 0.7
- 3 % isobutanol, 2 mM NAD (mU/mL) ([11]; 3 % isobutanol, 2 mM NAD, 50° C., pH 7): 74.77 mU/mL
- relative to wt ([11]; 3 % isobutanol, 2 mM NAD, normalized to the wildtype control value): 46.9
- Stab. rel to wt ([11]; stability in 3 % isobutanol relative to wildtype): 1
- T-Optimum [12, 16]: 63^[2] 50 °C
- T-Optimum [12, 17]: 63^[2] ° C.
- Half-life, 50° C. [6]: 12 h

B3: ADH: Alcohol dehydrogenase ADH (EC 1.1.1.1), Geobacillus stearothermophilus, Seq ID 18 (protein)
chain: MKAAVVEQFKEPLKIKEVEKPTISYGEVLVRIKACGVCHTDLHAAHGDWPVKPKLPLIPGHEGVGIVEEVGPGVTHLKVGDRVGIPWLYSACGHCDYCLSGQETLCEHQKNAGYSVDGGYAEYCRAAADYVVKIPDNLSFEEAAPIFCAGVTTYKALKVTGAKPGEWVAIYGIGGLGHVAVQYAKAMGLNVVAVDIGDEKLELAKELGADLVVNPLKEDAAKFMKEKVGGVHAAVVTAVSKPAFQSAYNSIRRGGACVLVGLPPEEMPIPIFDTVLNGIKIIGSIVGTRKDLQEALQFAAEGKVKTIIEVQPLEKINEVFDRMLKGQINGRVVLTLEDKLEHHHHHH
modifications: Alcohol dehydrogenase (EC 1.1.1.1), Geobacillus stearothermophilus Protein sequence including C-terminal His-Tag
- Activity, 50° C. (ADH for acetaldehyde) [13]: 210 U/mg
- Activity, 50° C. (ADH for isobutyraldehyde) [14]: 83 U/mg
- E50: Ethanol concentration which causes loss of 50% activity ([3]; 50° C.): 25 (50° C.) % v/v
- I50: Isobutanol concentration which causes loss of 50% activity ([4]; 50° C.): 5 (50° C.) % v/v
- T-Optimum [12, 16]: >60^[3] 50 °C
- T-Optimum [12, 17]: >60^[3] ° C.
- Half-life, 50° C. [6]: >24 h

B4: GDH: Glucose dehydrogenase GDH (EC 1.1.1.47), Sulfolobus solfataricus, NP 344316.1, Seq ID 02 (protein)
chain: MKAIIVKPPNAGVQVKDVDEKKLDSYGKIKIRTIYNGICGTDREIVNGKLTLSTLPKGKDFLVLGHEAIGVVEESYHGFSQGDLVMPVNRRGCGICRNCLVGRPDFCETGEFGEAGIHKMDGFMREWWYDDPKYLVKIPKSIEDIGILAQPLADIEKSIEEILEVQKRVPVWTCDDGTLNCRKVLVVGTGPIGVLFTLLFRTYGLEVWMANRREPTEVEQTVIEETKTNYYNSSNGYDKLKDSVGKFDVIIDATGADVNILGNVIPLLGRNGVLGLFGFSTSGSVPLDYKTLQEIVHTNKTIIGLVNGQKPHFQQAVVHLASWKTLYPKAAKMLITKTVSINDEKELLKVLREKEHGEIKIRILWESGRPVLGSSHHHHHH
modifications: Glucose dehydrogenase (EC 1.1.1.47), Sulfolobus solfataricus Protein sequence including C-terminal His-Tag
- Activity, 50° C. [15]: 15 U/mg
- T-Optimum ([2]; Table 1): 70 50 °C
- T-Optimum ([2]; Table 2): 70 °C
- E50: Ethanol concentration which causes loss of 50% activity ([3]; 45° C.): 30 (45° C.) % v/v
- I50: Isobutanol concentration which causes loss of 50% activity ([4]; 45° C.): 9 (45° C.) % v/v
